This series has as its target TLR-4 extracellular domain (Homo sapiens, UniProt O00206 O00206:24-631). The series is described as follows: ELONA; 200 nM aptamer, 20 mM Tris pH 7.4, 1 mM MgCl2, 150 mM NaCl, 5 mM KCl, 37 C; among the most efficient binders. Particulars: tags: C-terminal 6xHis, expressed in baculovirus; label: 5' digoxigenin (ELONA); predicted G4. The method, then:
It was determined if the selected aptamers recognized the TLR-4 protein. To that end, 100 ng/well of 6×HIS-recombinant TLR-4 were added to a 96-well microtiter plate and were incubated at 4° C. for 16 h. Subsequently, individual aptamers labeled with digoxigenin in the 5′ end were diluted at a concentration of 5 μg/mL and then denatured for 10 min at 95° C. and cooled for 10 min on ice. Then, 20 pmol of each of the aptamers in 100 μl (200 nM) of aptamer buffer were added to each well and the plate was incubated for 1 h at 37° C. Finally, the plate was incubated with peroxidase-conjugated anti-digoxigenin antibodies and developed using ABTS. An anti-Li H2A DNA aptamer was used as a positive control (Martin et al., 2013, PLoS ONE 8: e78886).
By means of the same type of assay, aptamers TLRApt#2F and TLRApt#3R were identified.

Chain of TLR-4 extracellular domain (O00206 24-631, one chain of several): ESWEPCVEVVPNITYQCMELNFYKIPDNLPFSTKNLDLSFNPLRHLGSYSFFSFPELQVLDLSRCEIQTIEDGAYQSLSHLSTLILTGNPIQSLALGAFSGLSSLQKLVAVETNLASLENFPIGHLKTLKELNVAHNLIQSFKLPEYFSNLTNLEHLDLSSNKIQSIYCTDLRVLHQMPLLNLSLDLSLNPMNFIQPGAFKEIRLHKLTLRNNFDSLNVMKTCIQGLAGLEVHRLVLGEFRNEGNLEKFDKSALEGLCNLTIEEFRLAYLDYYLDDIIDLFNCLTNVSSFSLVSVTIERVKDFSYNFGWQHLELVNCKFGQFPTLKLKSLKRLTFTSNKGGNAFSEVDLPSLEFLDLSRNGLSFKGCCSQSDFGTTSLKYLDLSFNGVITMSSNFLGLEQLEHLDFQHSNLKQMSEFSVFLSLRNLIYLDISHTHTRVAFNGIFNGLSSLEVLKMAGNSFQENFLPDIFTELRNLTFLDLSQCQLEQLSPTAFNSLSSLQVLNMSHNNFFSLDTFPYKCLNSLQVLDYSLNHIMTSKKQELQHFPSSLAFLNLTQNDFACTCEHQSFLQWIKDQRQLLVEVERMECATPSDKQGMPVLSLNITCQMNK

B1: TLRApt#4F (ssDNA)
DNA: GCGGATGAAGACTGGTGTGCCAATAAACCATATCGCCGCGTTAGCATGTACTCGGTTGGCCCTAAATACGAGCAAC
Take B1: the binding result is recorded as “binds”.

B2: TLRApt#1R (ssDNA)
DNA: GTTGCTCGTATTTAGGGCCACCGGCACGGGACAAGGCGCGGGACGGCGTAGATCAGGTCGACACCAGTCTTCATCCGC
On to B2, for which the binding result is on record as “binds”.

Values taken from patent US20260218204, “APTAMERS SPECIFIC FOR TLR-4 AND USES THEREOF” (Merck Patent GmbH, published 2026).
